Experimental data taken from publication PMC4564863.

Tests used:
[1] = molecular target: InbR (Rv0275c) (Mycobacterium tuberculosis, UniProt L7N6A2); assay: biochemical
[2] = molecular target: T1, InbR (Mycobacterium tuberculosis H37Rv, UniProt L7N6A2 1-241); assay: EMSA; 0.25-2 uM InbR; conditions: protein: recombinant; tags: His6 (pET28a, N-terminal); label: FITC
T1 sequence: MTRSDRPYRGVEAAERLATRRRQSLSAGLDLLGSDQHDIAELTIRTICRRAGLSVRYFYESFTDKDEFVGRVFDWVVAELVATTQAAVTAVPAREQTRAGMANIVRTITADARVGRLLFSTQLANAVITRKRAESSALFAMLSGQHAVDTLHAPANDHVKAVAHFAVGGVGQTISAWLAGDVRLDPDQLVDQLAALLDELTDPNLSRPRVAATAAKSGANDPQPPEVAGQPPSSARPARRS

NNC(=O)c1ccncc1 [INH, Isoniazid]
Kd [1]: 720 nM

B1: Rv0275cp4 (dsDNA)
DNA 1: TGCCGCTAATTATTTATTTGCCGTGGGAATGATATTGGCCGG
DNA 2: CCGGCCAATATCATTCCCACGGCAAATAAATAATTAGCGGCA
binding result [2]: no binding

B2: Rv0275cp1 (dsDNA)
DNA 1: TGCCGCTAATTATGGAAACACCTGTATCCTGATATTGGCCGG
DNA 2: CCGGCCAATATCAGGATACAGGTGTTTCCATAATTAGCGGCA
binding result [2]: binds
